Changes are numbered by the printed parent chain.
B1: G4: soybean EPSPS mutant, SEQ ID NO: 10, mutation S265(247)G (protein)
chain: MAAAEKPSTAPEIVLEPIKDISGTITLPGSKSLSNRILLLAALSEGTTVVDNLLYSEDIHYMLGALRTLGLRVEDDQTTKQAIVEGCGGLFPTIKESKDEINLFLGNAGTAMRPLTAAVVAAGGNASYVLDGVPRMRERPIGDLVAGLKQLGADVDCFLGTNCPPVRVNGKGGLPGGKVKLSGSVSSQYLTALLMAAPLALGDVEIEIVDKLISVPYVEMTLKLMERFGVSVEHSGDWDKFLVHGGQKYKSPGNAFVEGDASSAGYFLAGAAVTGGTITVNGCGTSSLQGDVKFAEVLEKMGAKVTWSENSVTVTGPPQDSSGQKVLQGIDVNMNKMPDVAMTLAVVALFANGQTTIRDVASWRVKETERMIAICTELRKLGATVEEGPDYCVITPPEKLNVTAIDTYDDHRMAMAFSLAACGDVPVTIKDPGCTRKTFPDYFEVLERFTRH
B2: G5: soybean EPSPS mutant, SEQ ID NO: 12, mutations S265(247)G and P114(101)S (protein)
chain: B1 chain with P114S
B3: T0: wild-type wheat EPSPS, amino acid sequence SEQ ID NO: 14; control (protein, listed as Triticum aestivum)
chain: MATSVAAPAAPAGAEEVVLQPIREISGAVQLPGSKSLSNRILLLSALSEGTTVVDNLLNSEDVHYMLEALEALGLSVEADKVAKRAVVVGCGGRFPVEKDAKEEVKLFLGNAGTAMRPLTAAVVAAGGNATYVLDGVPRMRERPIGDLVVGLQQLGADVDCFLGTNCPPVRINGKGGLPGGKVKLSGSISSQYLSSLLMAAPLALEDVEIEIIDKLISVPYVEMTLKLMEHFGVTAEHSDSWDRFYIKGGQKYKSPGNAYVEGDASSASYFLAGAAITGGTVTVEGCGTTSLQGDVKFAEVLEMMGAKVTWTDTSVTVTGPPRQPFGRKHLKAVDVNMNKMPDVAMTLAVVALFADGPTAIRDVASWRVKETERMVAIRTELTKLGATVEEGPDYCIITPPEKLNITAIDTYDDHRMAMAFSLAACAEVPVTIRDPGCTRKTFPNYFDVLSTFVKN

Test system: transgenic rice plants
Assay: glyphosate resistance of the EPSPS mutant in transgenic rice plants sprayed with Roundup 41% ammonium glyphosate
Type: in vivo, rice (Nipponbare)
Description: A method for detecting the glyphosate resistance of G1 (SEQ ID NO: 4) provided in Example 1, G3 (SEQ ID NO: 8) provided in Example 2, G4 (SEQ ID NO: 10) provided in Example 3, the soybean EPSPS mutant G5 (SEQ ID NO: 12) provided in Example 4, T1 (SEQ ID NO: 16) provided in Example 5, T3 (SEQ ID NO: 20) provided in Example 6, T4 (SEQ ID NO: 22) provided in Example 7, T5 (SEQ ID NO: 24) provided in Example 8, the wheat EPSPS mutant T6 (SEQ ID NO: 26) provided in Example 9, R1 (SEQ ID NO: 30) provided in Example 10, R3 (SEQ ID NO: 34) provided in Example 11, R4 (SEQ ID NO: 36) provided in Example 12, R5 (SEQ ID NO: 38) provided in Example 13, and the rice EPSPS mutant R6 (SEQ ID NO: 40) provided in Example 14 in the transgenic rice is as follows:
The plasmids (containing the EPSPS mutation gene) of the monoclonal resistant bacteria of pADV5-EPSPS in Examples 1-7 were extracted by a conventional method, followed by double enzyme digestion by Pac1 and BstEII, the small fragments were collected, and then the small fragments were ligated by using T4 DNA ligase, to the pGVP1 vectors that had undergone the same double enzyme digestion, to obtain a pGVP1-EPSPS vector having a structure as shown in FIG. 23.
EHA105 (Agrobacterium tumefaciens) competent cells were transformed by the pGVP1-EPSPS vector, and single colonies were picked up to perform bacterial colony PCR detection to identify positive strains; then the positive strains were inoculated into 1 mL of YEP culture medium containing 50 μg·mL^−1 kanamycin and 50 μg·mL^−1 rifampin to propagate, and then preserved at −80° C., or used for subsequent experiment.
400 μl of bacterium containing the target gene vector preserved at −80° C. was added to a culture dish of solid culture media containing YEP+50 μg/mL rifampin+50 μg/mL kanamycin, and cultured in the dark at 28° C. for 24 hours, then this bacterium was added to an infection culture medium, and this bacterial solution was adjusted to OD=0.2 as an infection liquid.
Sterilization and pre-culturing: mature rice (Nipponbare) seeds were manually shelled, and full seeds without bacterial plaque were selected, and sterilized according to following steps: putting the seeds into a 50 ml sterile centrifuge tube, adding 70% alcohol for disinfection for 30 seconds, pouring out the alcohol, and cleaning the seeds once with sterile water; adding 10-20 ml of 2.6% sodium hypochlorite solution for soaking and sterilizing for 20 minutes, pouring out the sodium hypochlorite solution, and soaking and cleaning the seeds with sterile water for 6-7 times, 3 minutes each time.
Induction and subculturing: the seeds were put on sterile filter paper for drying, and mature embryos were put in an induction culture medium with 12 embryos in each dish; the culture dishes were sealed with a sealing film after the operation was finished, the mature embryos were cultured in the dark at 30° C. for 21-28 days, calluses were transferred into a fresh culture medium, and continuously cultured for about 7-14 days, and spherical calluses with a size of 1-2 mm were taken as infection receptors.
the calluses were inoculated into a centrifuge tube or a culture cup, the prepared Agrobacterium tumefaciens suspension liquid was added for infection for 10 minutes, wherein the calluses were shaken several times; the bacterial solution was poured out, the calluses were taken out, and placed on sterile filter paper to suck out the surface bacterial solution (about 30 minutes); and the calluses were put on sterile filter paper in a culture dish, and cultured in the dark at 25° C. for 2-3 days.
Recovery culturing: the calluses having undergone co-culturing were inoculated in a recovery culture medium, and cultured in the dark at 30° C. for 5-7 days. First round of screening: the calluses were transferred to screening culture media 1 (S1) and cultured in the dark at 30° C. for 14 days. […]

[1] = 1× dosage 1060 g/hectare glyphosate sprayed, recorded on 10th day
[2] = 2× dosage 2120 g/hectare sprayed to plants surviving 1×, recorded 10 days later
[3] = 5× dosage 5300 g/hectare sprayed to plants surviving 2×, recorded 10 days later
[4] = 20× dosage 21200 g/hectare sprayed to plants surviving 5×, recorded 10 days later

Molecule | %++&+++ (percentage of plant having medium and high glyphosate resistance to the total number of plants observed) [1] [%] | number of plants denoted by + (low glyphosate resistance) [1] | number of plants denoted by ++ (medium glyphosate resistance) [1] | number of plants denoted by +++ (high glyphosate resistance) [1] | number of plants denoted by − (no glyphosate resistance) [1] | glyphosate resistance / survival of the rice transformed by the EPSPS, in words (1× glyphosate dosage) | %++&+++ (percentage of plant having medium and high glyphosate resistance to the total number of plants observed) [2] [%] | number of plants denoted by + (low glyphosate resistance) [2] | number of plants denoted by ++ (medium glyphosate resistance) [2] | number of plants denoted by +++ (high glyphosate resistance) [2] | number of plants denoted by − (no glyphosate resistance) [2] | &++&+++ (percentage of plant having medium and high glyphosate resistance to the total number of plants observed) [3] [%] | number of plants denoted by + (low glyphosate resistance) [3] | number of plants denoted by ++ (medium glyphosate resistance) [3] | number of plants denoted by +++ (high glyphosate resistance) [3] | number of plants denoted by − (no glyphosate resistance) [3] | &++&+++ (percentage of plant having medium and high glyphosate resistance to the total number of plants observed) [4] [%] | number of plants denoted by + (low glyphosate resistance) [4] | number of plants denoted by ++ (medium glyphosate resistance) [4] | number of plants denoted by +++ (high glyphosate resistance) [4] | other results
B1 | 26.5 | 23 | 9 | 4 | 13 | obviously superior to that of the rice seedlings transformed by G0 | 2.0 | 25 | 01 | 0 | 25 | 0.0 | 7 | 0 | 0 | 44 | 0.0 | 0 | 0 | 0 | glyphosate resistance / survival of the rice transformed by the EPSPS, in words (2× glyphosate dosage): some of the transgenic rice seedlings transformed by G4 still survived; glyphosate resistance / survival of the rice transformed by the EPSPS, in words (5× glyphosate dosage): some of the transgenic rice seedlings transformed by G4 still survived; number of plants denoted by − (no glyphosate resistance) [4]: 51
B2 | 69.1 | 14 | 18 | 49 | 16 | had certain resistance to glyphosate | 34.0 | 43 | 23 | 10 | 21 | 7.2 | 53 | 6 | 1 | 37 | 0.0 | 24 | 0 | 0 | glyphosate resistance / survival of the rice transformed by the EPSPS, in words (2× glyphosate dosage): some of the rice seedlings containing the soybean EPSPS mutants G3 and G5 still survived; glyphosate resistance / survival of the rice transformed by the EPSPS, in words (5× glyphosate dosage): some of the rice seedlings containing the soybean EPSPS mutants G3 and G5 still survived; number of plants denoted by − (no glyphosate resistance) [4]: 73; glyphosate resistance / survival of the rice transformed by the EPSPS, in words (20× glyphosate dosage): some of the rice seedlings containing the soybean EPSPS mutants G3 and G5 still survived
B3 | 0.0 | 1 | 0 | 0 | 32 | had no resistance, one was seriously damaged, and all the others died | 0.0 | 0 | 0 | 0 | 33 | 0.0 | 0 | 0 | 0 | 33 | 0.0 | 0 | 0 | 0 | number of plants denoted by − (no glyphosate resistance) [4]: 33

— patent US11584938B2, “Plant EPSPS mutant containing L195P and S247G mutations and encoding gene and use thereof” (GEVOTO LLC, priority 2017, dated 2023)
